B1: TPR t1 (parent)
chain: GACCAAUCUGCCCUCAGAGCUCGAGAACAUCUUCGGAUGCAGAGGAGGCAGGCUUCGGUGGCGCGAUAGCGCCAACGUCCUCAACCUCCAAUGCAUCCCACCACAUGAUGAUGCCUGAAGAGCCUUGGUUUUUUG

Variants of: B1
Assay: polymerase ribozyme fitness, log enrichment relative to wild type (log ratio); higher = more active; in vitro selection for triplet polymerase activity
Method in brief: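 Input and output libraries were sequenced on Illumina after a single in vitro selection round, run in triplicate on PCR-built, transcribed mutant libraries of each subunit of a heterodimeric triplet polymerase ribozyme. Selection annealed libraries to a biotinylated primer, the partner subunit and triplets, incubated them frozen at −7 °C, then gel-excised extended constructs for streptavidin-bead capture and RT-PCR. Genotypes with ≥10 input reads and ≥1 read per output were kept. Fitness is the logarithm, taken in base 2, of genotype enrichment divided by wild-type enrichment, using inverse-variance-weighted replicate averages.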

Row | Variant | polymerase ribozyme fitness (log ratio)
1 | GACCAAUCUGCCCUCAGAGCUCGAGAACAUCUUCGGAUGCAGAGGAGGCAGGCUUCGGUGGCGCGAUAGCGCCAACGUCCUAAACCUCGAAUGCAUCCCAAAACAUGAUGACGCCUGAAGAGACUUGGUUUUUUG [C82A C89G C101A C102A U112C C123A] | -6.34
2 | GACCAAUCUGCCCUCAGAGGUCGAGAACAUCUUCGGAUGCAGAGGAGGCAGGCUUCCGUGGCGCGAUAGCGCCAACGUCCUCAACCUCCAAUGCAUCCCACCACAUGAUGAUGCCUGAAGAGCCUUGGUUUUUUG [C20G G57C] | -4.41
3 | GACCAAUCUGCCCUCAGAGCCCGAGAACAUCUUCGGAUGCAGAGGAGGCAGGCUUCGGUGGCGCGAUAGCGCCAACGUCCUCACCCUCCAAUGCAUCCCACCACAUGAUGAUGCCUGAAGAGCGUUGGUUCUUUG [U21C A84C C124G U131C] | 1.43
4 | GACCAAUCUGCCCUCAGAGCUCGAGAACAUCUUCGGAUGCAGAGGAGGCAGGCUUCGGUGGCGCGAUAGCGCCAACGCCCUCAACCUCCAAUGCAUCCCACCACAUGAUGGUGCCUGAAGAGCAUUGGUUUUUUG [U78C A111G C124A] | 1.04
5 | GACCAAGCUGCCCUCAGAGCUCGAGAACAUCUUCGGAUGCAGAGGAGGCAGGCUUCGGUGGCGCGAUAGCGCUAACGACCUCAACCUCCAAUGCAUCCCACCACAUGAUGAUGCCUGAAGAGCCUUGGUUUUUUG [U7G C73U U78A] | 0.634
6 | GACCAAUCUGCCCUCAGAGCUCGAGAACAUCUUCGGAUGCAGAGGAGGCAGGCUUCGGUGGCGCGAUAGCGCGAACGUCCUCAACCUCCAAUGCAUCCCACCACAUGAUGAUGCCUAAAGUGCCUUGGUUUUUUG [C73G G117A A121U] | -0.326
7 | GACCAAUCUGCCCUCAGAGCUCGAGAACAUCUUCGGAUGCAGAGGAGGCCGGCUUCGGUGGCGCGAUAGCGCCAACGUCCUCAACCUCCAAUGCAUGCCACCACAUGAUGAUGCCUGAAGAGCCUUGGUUUUUUG [A50C C97G] | -6.04
8 | GACCAAUCUGCCCUCAGAGCUCGAGAACAUCUUCGGAUGCAGAGGAGGCAGGCUUCGGUGGCGCGAUAGCACCAACGUCCUCAACCUCCAAUGCAUCCCACCACAUGAUGAUGCCUGAAGAGCCUUGGUUUUGUG [G71A U133G] | -0.389
9 | GACCAAUCUGUCCUACGAGCUCGAGAACAUCUGCGGAUGCAGAGGAGGGAGGCUUCGGUAGCGCAAUAGCGCCAACGUACUCAACCUCCCAUGCAUCCCACCACAUGAAGAUGCCUGAAGAGCCUUGGUUUUUUG [C11U C15A A16C U33G C49G G60A G65A C79A A90C U109A] | -8.01
10 | GACCAAUCUGCCCUCAGAACUCGAGAACAUCUUCGGAUGCAGAGGAGGCAGGCUUCGGUGGCGCGAUAGCGCAAACGUCCUCAACCUCCAAUGCAUCCCACCACUUGAUGAUGUCGGAAGAGCCUUGGUUUUUUG [G19A C73A A105U C114U U116G] | -5.41
11 | GACCAAUCUGCCCUCAGAGCUCGAGAACAUCUUCGGAUGCAGAGGUGGCAGGCUUCGGUGGUGCGAUAGCGCCAACGUCCUCAACCUCCAAUGCAUCCCACCACAUGAUGAUACCUGAAGAGCCUUGGUUUUUUG [A46U C62U G113A] | -2.45
12 | GACCAAUCUGCCCCCAGAGCUCGAGAACAUCUUCGGAUGCAGAGGAGGCAGGCUUCGGUGGCGCGAUAGCUCCAACGUCCUCAACCUCCAUUGCAUCCCACCACAUGAUGAUGACUGAAGUGCUUUGGUUUUUUG [U14C G71U A91U C114A A121U C124U] | -4.54
13 | GACCAAUCUGCCCUCAGAGCUCGAGAACAUCUUCGGAUGCAGAUGAGGCAGGCUUCGGUGGCGCGAUAGCGCCAACGUCCUCAACCUCCAAUGCAUCUCACCACAUGAUGAUGCCUGAAGAGCCGUUGUUUUUUG [G44U C98U U125G G127U] | -3.43
14 | GACCAAUCUGCCCUCAGAGCUCGAGAACAUCUUCGGAUGCAGAGGAGGCAGGCUUCGGUGGCGCGGUAGCGCCAACGUCCUCAACCUCCAAUGCAUCCCACCACAUGAUGAUGCCUGAAGAGCCUUUGUUUUUUG [A66G G127U] | -1.49
15 | GACCAAUCUGCCCUCAGAGCUGGAGAACAUCUUCGGAUGCAGAGGAGGCAGGCUUCGGUGGCGCGAUAGCGCCAACGUCCUAAACCUCCAAUGGAUCCCACCACAUGAUGUUGCCUGAAGAGCCUUGGUUUUUUG [C22G C82A C94G A111U] | -4.76
16 | GACCUAUCUGCCCUCAGAGCUCGAGAACAUCUUCGGAUGCAGAGGAGGCAGGCUUCGGUGGCGUGAUAGCGCCAACGUCAUCAACCUUCAAUGCUUCCCACCACAUGAUGAUGCCUGAAGAGCCUUGGUUUUUUG [A5U C64U C80A C88U A95U] | -4.14
17 | GACCAAUCUGCCCUCAGAGCCCGAGAAUAUCUUCGGAUGCAGAGGAGGCAGGCUUCGGUGGCGCGAUAGCGCCAACGUCCUCAACCUCCAAUGCAUCCCAGCACAUGAUCAUGCCUGAAGAGCCUUGGUUUUUUG [U21C C28U C101G G110C] | -5.65
18 | GACCAAUCUGCCCUCAGAGCUCGAGAACAACUUCGGUUGCAGAGGAGGCAGGCUUCGGUGGCGCGAUAGCGCCAACGUCCUCAACCUCCAAUGCAUCCCACCACAUGAUGAUGCCUGAAGAGCCUUGGUUUUUUG [U30A A37U] | -4.9
19 | GACCAAUCUGCCCUCAGAGCUCGAGAACAUCUUCGGAUGGAGAGGAGGUAGGCUUCGGUGGCGCGAUAGCGCCAACGUCCUCAACCUCCAAUGCAUCCCACCACAUGAUGAUGCCUGAAGAGCCUUGGUUUUUUG [C40G C49U] | -2.95
20 | GACAAAUCUGCCUUCAGAGCUCGAGAACAUCUUCGGAUGCAGAGGAGGCAGGCUUCGGUGGCGCGAUAGCGCCAACGUCCUCAACCUCCAAUGCAUCCCAGCACAUGAUGAUGCCUGAAGAGCCUUGGUUUUUUG [C4A C13U C101G] | -4.23
21 | GACCUAUCUGCCCUCAGAGCUCGAGAACAUCUUCGGAUGCAGAGGAGGCAGGCUUCGGUGGCGCGAUACCGCCAACGUCCUCAACCUCCAAUGCAUCCCACCACAUGAUGAUGCCUGAAGAGCCUUGGUUUUUUG [A5U G69C] | -2.22

Reference: the RNAGym collection of RNA variant scans (doi:10.1073/pnas.2313332121)
